Data taken from patent US20250163168A1, “NOVEL ANTIBODIES AND ANTIBODY CONJUGATES FOR THE TREATMENT OF METABOLIC DISORDERS” (PFIZER INC., priority 2023, published 2025).

Columns and labels:
human GIPR (hGIPR) = target: T1, human GIPR (hGIPR) (Homo sapiens, UniProt P48546); experiment: Functional in vitro GIPR antagonist potency assay (human GIPR-CHO cAMP, HTRF); type: cell-based; details: CHO-K1 cells stably expressing hGIPR, 1.5 nM hGIP
T1 sequence (P48546 22-466): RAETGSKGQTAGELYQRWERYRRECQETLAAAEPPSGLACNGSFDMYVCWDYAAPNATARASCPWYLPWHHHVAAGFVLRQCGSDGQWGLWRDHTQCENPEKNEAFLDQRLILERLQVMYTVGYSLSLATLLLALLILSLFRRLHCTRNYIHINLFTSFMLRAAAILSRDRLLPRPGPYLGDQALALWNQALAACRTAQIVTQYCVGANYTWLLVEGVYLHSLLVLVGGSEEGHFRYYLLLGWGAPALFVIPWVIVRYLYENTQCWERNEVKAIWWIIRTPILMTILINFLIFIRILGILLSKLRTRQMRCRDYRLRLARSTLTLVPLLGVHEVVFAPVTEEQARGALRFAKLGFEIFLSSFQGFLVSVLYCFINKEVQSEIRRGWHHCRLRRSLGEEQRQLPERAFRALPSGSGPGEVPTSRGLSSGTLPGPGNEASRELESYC
Text: Following agonist activation, hGIPR associates with the G-protein complex causing the Gas subunit to exchange bound Guanosine diphosphate (GDP) for guanosine triphosphate (GTP), followed by dissociation of the Gas-GTP complex. The activated Gas subunit can couple to downstream effectors to regulate the levels of second messengers or cAMP within the cell. Thereby, determination of intracellular cAMP levels allows for pharmacological characterization. Intracellular cAMP levels were quantified using a homogenous assay utilizing the Homogeneous Time Resolved Fluorescence (HTRF) technology from Perkin Elmer. The method was a competitive immunoassay between native cAMP produced by the cells and cAMP labelled with the acceptor dye, d2. The two entities competed for binding to a monoclonal anti-cAMP antibody labeled with cryptate. […] G2269) in 1× cAMP assay buffer was added to the assay plate (5 μL/well) at 4.5 nM (final concentration of 1.5 nM) and incubated for another 30 minutes at 37° C., after which intracellular cAMP levels were quantified with Cisbio cAMP-GS Dynamic kit (#62AM4PEC) with dilution of 20× of D2 and Eu in lysis buffer, mixed 1:1 by volume, and added 15 ul/well into plate, with a quick spin. […] The plate was then read on an Envision plate reader. Data were analyzed using the ratio of fluorescence intensity at 620 and 665 nm for each well.

[1] = system: diet induced obese (DIO) hGIPR mice; experiment: Body weight gain prevention and food intake in DIO hGIPR mice on high fat diet; type: in vivo, mouse; details: 1 mg/kg s.c. twice a week, 60% high fat diet, compared to IgG control (FIG. 6)
Text: Male hGIPR mice between 18-21 weeks of age were utilized which had been on 60% high fat diet (D12492, Research Diets) for 14 weeks prior to the start of the study and were singly housed, maintained on a 12-hour light/12-hour dark cycle, and received food and water ad libitum. Prior to the start of the study, mice were randomized into each group based on body weight. […] Mice were continued on 60% high fat diet for the duration of the study. In FIG. 2, number of animals per group=10; Data are presented as the mean and error bars are SEM.
To determine statistical significance for the body weight endpoint, a generalized least squares linear model with appropriate fixed effects and correlation and variance structure are used for BW outcomes. All residuals were evaluated for meeting the normality assumption with the Shapiro-Wilks Test and Q-Q Plots and the sphericity and homoscedasticity assumption by the residual plots and Bartlett's test. […]
Male hGIPR mice between 18-21 weeks of age were utilized which had been on 60% high fat diet (D12492, Research Diets) for 14 weeks prior to the start of the study and were singly housed, maintained on a 12 hour light/12 hour dark cycle, and received food and water ad libitum. […] Percent change in body weight at each time point was calculated based on difference from pre-dose weight, and 24 hour food intake was measured during week 3. […]

mouse GIPR/GIP = target: T2, mouse GIPR/GIP (Mus musculus, UniProt Q0P543); experiment: Cross-species activity to mouse GIPR/GIP
T2 sequence (Q0P543 19-460): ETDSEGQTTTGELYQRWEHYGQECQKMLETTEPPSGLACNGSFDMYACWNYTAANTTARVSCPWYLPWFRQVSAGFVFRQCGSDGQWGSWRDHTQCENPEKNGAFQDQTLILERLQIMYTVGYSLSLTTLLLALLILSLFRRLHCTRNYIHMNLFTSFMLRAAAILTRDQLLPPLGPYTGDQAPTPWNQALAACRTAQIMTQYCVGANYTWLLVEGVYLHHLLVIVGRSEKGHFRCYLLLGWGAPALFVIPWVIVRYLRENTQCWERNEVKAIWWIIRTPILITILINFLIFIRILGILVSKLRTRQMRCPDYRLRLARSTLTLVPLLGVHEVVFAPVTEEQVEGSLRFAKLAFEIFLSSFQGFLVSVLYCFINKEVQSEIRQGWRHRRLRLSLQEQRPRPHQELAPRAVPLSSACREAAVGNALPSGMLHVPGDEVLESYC

Substance: 2G10: fully human monoclonal anti-GIPR antagonist antibody portion of AMG 133 (maridebart cafraglutide); benchmark antibody [reference compound]
- IC50 (human GIPR (hGIPR)): 0.0304 µM
- body weight gain [1]: reduced body weight gain
- cross-reactivity to additional species such as mouse GIPR (mouse GIPR/GIP): not cross-reactive
